Reference: patent publication US10736988B2, “Bone substitute nanocomposites and methods of synthesis using multiphosphorylated peptides” (UNIVERSITY OF PITTSBURGH—OF THE COMMONWEALTH SYSTEM OF …, priority 2012, dated 2020)
Values joined by “and” are separate entries in the source; they are usually repeats but may differ in a detail not shown here. Equal entries are not always repeated. Where two headings read alike, the source gives them in different places.

Key:
CK1 and CK2 = assay: In vitro phosphorylation of peptide by CK1 and CK2 combined (32P scintillation); assay type: biochemical; conditions: for average number of phosphates per peptide: SD in parenthesis
Excerpt: (§1) R-SSD3 indicated by SEQ NO. […] ATP was used for the scintillation counter experiments.

type I collagen fibrils = biological target: T1, type I collagen fibrils (Rattus norvegicus, UniProt P02454+P02466); assay: On-grid mineralization of reconstituted collagen fibrils (TEM/SAED)
T1 construct: from an acidic rat tail collagen solution; from tissue; host or cells: rat tail
T1 sequence (P02454 152-1207 limits assumed): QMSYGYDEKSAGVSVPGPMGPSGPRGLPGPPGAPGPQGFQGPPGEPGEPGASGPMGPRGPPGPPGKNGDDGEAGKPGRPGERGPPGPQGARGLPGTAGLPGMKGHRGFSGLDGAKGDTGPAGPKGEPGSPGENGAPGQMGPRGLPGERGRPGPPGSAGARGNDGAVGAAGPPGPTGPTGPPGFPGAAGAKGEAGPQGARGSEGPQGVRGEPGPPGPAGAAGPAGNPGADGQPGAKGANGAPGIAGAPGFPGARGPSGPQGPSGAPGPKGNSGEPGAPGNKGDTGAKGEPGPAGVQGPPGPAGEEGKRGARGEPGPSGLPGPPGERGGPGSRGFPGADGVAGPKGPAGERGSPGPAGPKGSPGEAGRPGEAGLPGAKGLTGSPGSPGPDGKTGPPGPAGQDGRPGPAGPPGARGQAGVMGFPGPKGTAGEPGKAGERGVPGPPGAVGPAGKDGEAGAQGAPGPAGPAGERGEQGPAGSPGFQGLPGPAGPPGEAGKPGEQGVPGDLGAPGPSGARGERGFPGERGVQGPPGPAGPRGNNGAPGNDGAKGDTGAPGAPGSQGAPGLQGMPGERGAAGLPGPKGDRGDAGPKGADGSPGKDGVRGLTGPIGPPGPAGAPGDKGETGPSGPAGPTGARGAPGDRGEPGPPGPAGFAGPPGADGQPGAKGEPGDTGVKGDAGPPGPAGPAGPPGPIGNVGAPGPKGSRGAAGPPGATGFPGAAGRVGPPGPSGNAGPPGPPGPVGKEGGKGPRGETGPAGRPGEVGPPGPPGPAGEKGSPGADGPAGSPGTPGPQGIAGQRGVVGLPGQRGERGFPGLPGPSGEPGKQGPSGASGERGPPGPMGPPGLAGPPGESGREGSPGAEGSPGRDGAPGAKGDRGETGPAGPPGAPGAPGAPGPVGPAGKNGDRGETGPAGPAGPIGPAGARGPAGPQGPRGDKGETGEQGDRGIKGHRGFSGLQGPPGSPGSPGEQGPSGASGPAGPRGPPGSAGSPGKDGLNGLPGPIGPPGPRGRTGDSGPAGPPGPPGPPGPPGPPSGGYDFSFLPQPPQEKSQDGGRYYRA
T1 sequence (P02466 86-1125 limits assumed): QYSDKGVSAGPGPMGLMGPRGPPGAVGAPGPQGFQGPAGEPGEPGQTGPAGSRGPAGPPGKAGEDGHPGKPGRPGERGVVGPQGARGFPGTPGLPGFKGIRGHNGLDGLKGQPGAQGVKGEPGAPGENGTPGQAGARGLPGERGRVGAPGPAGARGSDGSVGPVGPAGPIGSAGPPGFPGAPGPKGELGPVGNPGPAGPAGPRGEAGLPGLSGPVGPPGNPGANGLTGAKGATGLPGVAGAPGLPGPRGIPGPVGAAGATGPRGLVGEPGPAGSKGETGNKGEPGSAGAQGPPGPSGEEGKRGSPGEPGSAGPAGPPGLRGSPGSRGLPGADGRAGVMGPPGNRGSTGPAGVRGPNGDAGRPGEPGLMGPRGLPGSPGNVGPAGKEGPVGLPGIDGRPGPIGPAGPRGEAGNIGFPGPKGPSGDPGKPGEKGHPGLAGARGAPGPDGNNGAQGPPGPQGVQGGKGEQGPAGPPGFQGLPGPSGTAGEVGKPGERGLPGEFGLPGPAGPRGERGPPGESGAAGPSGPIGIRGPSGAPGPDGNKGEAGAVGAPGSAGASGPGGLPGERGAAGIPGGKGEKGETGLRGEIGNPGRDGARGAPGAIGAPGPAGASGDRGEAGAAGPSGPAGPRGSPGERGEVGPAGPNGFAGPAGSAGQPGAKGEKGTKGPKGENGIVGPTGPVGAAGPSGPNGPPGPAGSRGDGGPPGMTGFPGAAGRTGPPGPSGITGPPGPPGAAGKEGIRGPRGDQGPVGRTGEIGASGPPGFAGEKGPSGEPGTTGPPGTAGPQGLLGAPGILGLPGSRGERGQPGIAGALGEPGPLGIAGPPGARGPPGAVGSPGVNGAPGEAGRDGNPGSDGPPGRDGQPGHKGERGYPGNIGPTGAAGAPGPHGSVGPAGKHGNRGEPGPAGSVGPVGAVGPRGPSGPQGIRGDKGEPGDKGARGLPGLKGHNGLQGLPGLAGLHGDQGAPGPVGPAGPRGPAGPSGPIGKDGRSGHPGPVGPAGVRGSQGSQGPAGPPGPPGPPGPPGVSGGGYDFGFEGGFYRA
Protocol: Mineralization experiments were carried out using a modification of an “on grid” mineralization setup developed in a lab and published in the art. The type I collagen fibrils were reconstituted on carbon-coated Cu grids, mesh #400 (EMS, Hatfield, Pa.) from an acidic rat tail collagen solution. Concentrated 10×PBS (mono- and disodium phosphate totaling 40 mM and 1.5 M NaCl), phosphorylated with CK2 and nonphosphorylated protein stock solution, […] to obtain 4 mM PBS, 1.67 mM Ca and 15 μg/ml peptide. Prior to the experiments, the pH of concentrated 10×PBS was adjusted such that upon mixing, the pH of the final mineralization solution was 7.8. The TEM grids coated with reconstituted collagen fibrils were floated on 50 μL droplets of the mineralization solution at 100% humidity for 16 hours at 37° C.
TEM and selected area electron diffraction (SAED) studies were conducted using JEOL 1210 operated at 100 kV. The micrographs were recorded using an AMT CCD camera (AMT, Danvers, Mass.). An aluminum-coated TEM grid (EMS Hatfield, Pa.) was used as a standard for the calibration of SAED patterns for d-spacing calculations. The micrographs were analyzed using an ImageJ 1.38 software package (Bethesda, Md.).

mixture of CK1 and CK2 = assay: Mass spectrometry identification of phosphates incorporated by a mixture of CK1 and CK2; assay type: biochemical; conditions: MS, one hour
Protocol: For mass spectrometry (MS) analysis, the reaction was performed as above, however, radiolabeled ATP was not used and the reaction mixture was transferred into a Tube-O-DIALYZER with a MWCO of 1000 and dialyzed overnight.
For MALDI-TOF-MS analysis, the peptides and CHCA matrix (α-cyano-4-hydroxycinnamic acid, 10 μg/μl, in 50% acetonitrile containing 0.1% trifluoroacetic acid) solutions were premixed in a small Eppendorf tube, spun down and remixed three times, then applied directly to the sample plate. Once applied to the target, the sample was allowed to air dry. The samples were analyzed using an Applied Biosystems (Foster City, Calif.) Voyager DE Pro or 4700 Proteomics Analyzer TOF/TOF instrument. The samples were also analyzed by LC-MS/MS on a ThermoFischer (Waltham, Mass.) Surveyor LC System coupled to a ThermoFischer LCQ Deca XP Plus mass spectrometer equipped with a nanospray ion source and also a ThermoFischer LTQ-XL instrument. The LC System contained a sample trap followed by a C18 column (BioBasic C18 PicoFrit column, 10 cm×75 μM, New Objective, Inc., Woburn, Mass.). […]
Upon elution of the C18 column, the analyte was ionized by nano-capillary ESI. […] The MS/MS spectra were analyzed with BioWorks 3.2 Browser with the Sequest search engine. […]

Casein Kinase 1 (CK1) = conditions: for average number of phosphates per peptide: SD in parenthesis
Protocol: R-SSD3 indicated by SEQ NO. 2 was phosphorylated in vitro by CK1, CK2 or a mixture of both kinases. ATP was used as a source of phosphate; and [γ-^32P] ATP was used for the scintillation counter experiments. The standard assay mixture consisted of 50 mM Tris-HCl, pH 7.4, 5 mM MgCl2, 1 mM EGTA and 10 mM β-glycerophosphate. […] The samples were vortexed and kept for 20 minutes at room temperature before transferring into a water bath at 30° C. The reaction was started by adding 10 μl of ATP (cold Mg-ATP and 1 μCi of [γ-^32P] ATP) and the reaction mixture was incubated at 30° C. in a shaker for 1 hr. To assess the kinetics of the reactions, phosphorylation was allowed to proceed for 20 minutes, 1 hour, 4 hours and 24 hours before the reaction was stopped. The reaction was terminated by adding 40 μl of loading Tricine sample buffer (200 mM Tris-HCl, pH 6.8, 2% SDS, 40% glycerol, 0.04% Coomassie G-250 dye). The samples were then boiled in a water bath for five minutes and subjected to electrophoresis on 16.5% Tris-Tricine gel run using Tris-Tricine/SDS buffer (containing 100 mM Tris, 100 mM Tricine, 0.1% SDS, pH 8.3) at 100V for 1.5 hours.
In vitro phosphorylation assay was performed according to conventional procedure. 25 ul reactions containing 1 μg of R-SSD3 peptide indicated by SEQ NO. 2, in the presence and absence of 300 ng of either CK1 or CK2 or both containing 10 μCi ^32P γ [ATP]. The reactions were performed in triplicate at 30° C. for 1 hour, 4 hours and 24 hours using one batch of radiolabeled ATP and enzymes from a single lot.
The reaction products were purified using SDS-PAGE, visualized by autoradiography, and band intensities were quantified using a Kodak 1D 3.6 imaging system. After autoradiography, the gel was overlaid on the autoradiogram, the individual protein bands were excised and ^32P incorporation was determined using a liquid scintillation counter (Beckman LS6500 system). To calculate the number of moles of phosphates transferred to 1 ug of peptide ([…]) in the kinase reaction, the mean counts per minute obtained in the kinase reactions from triplicates (minus blank) are divided by the specific activity of the ^32Pγ[ATP] in the kinase assay, as follows.

Casein Kinase 2 (CK2) = biological target: T2, Casein Kinase 2 (CK2) (Homo sapiens, UniProt P68400); assay: In vitro phosphorylation of peptide by CK2 (32P scintillation / autoradiography); assay type: biochemical; conditions: for average number of phosphates per peptide: SD in parenthesis
T2 construct: purchased Millipore Inc. 14-197
T2 sequence (P68400 whole entry): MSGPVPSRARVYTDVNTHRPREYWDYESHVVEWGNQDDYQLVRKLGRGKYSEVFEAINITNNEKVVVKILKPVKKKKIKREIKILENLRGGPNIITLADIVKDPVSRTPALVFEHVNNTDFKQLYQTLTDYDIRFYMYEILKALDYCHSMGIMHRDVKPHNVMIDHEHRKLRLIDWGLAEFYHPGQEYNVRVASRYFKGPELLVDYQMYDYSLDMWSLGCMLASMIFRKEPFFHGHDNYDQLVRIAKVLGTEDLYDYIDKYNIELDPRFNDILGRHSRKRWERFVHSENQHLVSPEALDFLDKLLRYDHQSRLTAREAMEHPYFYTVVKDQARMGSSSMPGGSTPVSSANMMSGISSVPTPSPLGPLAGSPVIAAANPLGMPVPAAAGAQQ
T2 sequence (P67870 whole entry partner): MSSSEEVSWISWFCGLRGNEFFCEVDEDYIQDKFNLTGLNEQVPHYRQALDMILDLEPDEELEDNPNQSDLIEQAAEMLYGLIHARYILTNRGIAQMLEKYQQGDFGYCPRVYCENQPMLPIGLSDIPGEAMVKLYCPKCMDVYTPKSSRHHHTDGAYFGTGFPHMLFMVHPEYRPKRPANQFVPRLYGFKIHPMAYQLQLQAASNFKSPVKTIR
Excerpt: as §1

[1] = test system: rabbit ulna critical size defect; assay: In vivo bone regeneration, rabbit ulna critical size defect
Excerpt: A collagen scaffold containing […] indicated by SEQ NO. 2 peptide was implanted into a critical size defect in a rabbit ulna model. […] 2 peptide eight weeks after the surgery. […] FIG. 10A is a low-magnification image and FIG. 10B is a close up of the area in FIG. 10A identified by a rectangle, of H&E stained nondecalcified sections of the regenerating ulnar bone eight weeks after the surgery.

collagen fibrils = conditions: cited from earlier work

B1: … (peptide)
chain: RRRDEDESSDSSDSSDSSDSSDSSDSSDSSDSSDSSDSSDSSDSSDSSDSSDSSDSSDSSDSSDSSDDEG
modifications: derived from consensus mammalian sequence of DSPP; (8)..(68) [Asp Ser Ser] repeats (n varies from 2 to 20); (1)..(3) Insertion of 3 Arg at the N terminus of the peptide; (4)..(7) Casein kinase 1 recognition motif; (69)..(71) Casein kinase 2 recognition motif
What does the source list for B1?
share of all serines phosphorylated (CK1 and CK2; CK1+CK2 group, 24 hours): 58%; average number of phosphates per peptide (CK1 and CK2; CK1 and CK2, 1 hour): 0.0191 (0.007) phosphates per peptide; average number of phosphates per peptide (CK1 and CK2; CK1 and CK2, 4 hours): 0.343 (0.124) phosphates per peptide; average number of phosphates per peptide (CK1 and CK2; CK1 and CK2, 24 hours): 3.5 phosphates per peptide and 3.4555 (1.755) phosphates per peptide; collagen fibril mineralization pattern (type I collagen fibrils; 15 μg/ml peptide, 16 hours, 37° C., pH 7.8, TEM): randomly oriented crystals formed throughout the grid; mineral nucleation outside of the collagen fibrils (type I collagen fibrils; TEM, phosphorylated peptide experiments): suppressed mineral nucleation outside of the collagen fibrils; maximum number of phosphates incorporated onto the peptide (mixture of CK1 and CK2): four out of six possible; average number of phosphates per peptide (Casein Kinase 1 (CK1); CK1, 1 hour): 0.006 (0.002) phosphates per peptide; average number of phosphates per peptide (Casein Kinase 1 (CK1); CK1, 4 hours): 0.139 (0.103) phosphates per peptide; average number of phosphates per peptide (Casein Kinase 1 (CK1); CK1, 24 hours): 1.8 phosphates per peptide and 1.778 (1.196) phosphates per peptide; share of all serines phosphorylated (Casein Kinase 1 (CK1); CK1 group, 24 hours): 30%; average number of phosphates per peptide (Casein Kinase 2 (CK2); CK2, 1 hour): 0.0148 (0.015) phosphates per peptide; average number of phosphates per peptide (Casein Kinase 2 (CK2); CK2, 4 hours): 0.435 (0.099) phosphates per peptide; average number of phosphates per peptide (Casein Kinase 2 (CK2); CK2, 24 hours): 4.4 phosphates per peptide and 4.354 (0.957) phosphates per peptide; share of all serines phosphorylated (Casein Kinase 2 (CK2); CK2 group, 24 hours): 73%

B2: … (peptide)
chain: B1 chain
modifications: derived from consensus mammalian sequence of DSPP; (8)..(68) [Asp Ser Ser] repeats (n varies from 2 to 20); (1)..(3) Insertion of 3 Arg at the N terminus of the peptide; (4)..(7) Casein kinase 1 recognition motif; (69)..(71) Casein kinase 2 recognition motif
Which “bone re-growth (MicroCT)” value ([1]; collagen scaffold containing peptide, 8 weeks, versus no implant) does the source give for B2 here?
The value was “significant bone re-growth”.

What about the “bridging of the defect (H&E nondecalcified sections)” value ([1]; eight weeks after the surgery) of the same molecule?
The value was “almost complete bridging of the critical size defect by bone”.

B3: dentin matrix protein 1 (protein, UniProt Q13316 17-513, looked up)
Dentin matrix acidic …: LPVTRYQNNESEDSEEWKGHLAQAPTPPLESSESSEGSKVSSEEQANEDPSDSTQSEEGLGSDDHQYIYRLAGGFSRSTGKGGDDKDDDEDDSGDDTFGDDDSGPGPKDRQEGGNSRLGSDEDSDDTIQASEESAPQGQDSAQDTTSESRELDNEDRVDSKPEGGDSTQESESEEHWVGGGSDGESSHGDGSELDDEGMQSDDPESIRSERGNSRMNSAGMKSKESGENSEQANTQDSGGSQLLEHPSRKIFRKSRISEEDDRSELDDNNTMEEVKSDSTENSNSRDTGLSQPRRDSKGDSQEDSKENLSQEESQNVDGPSSESSQEANLSSQENSSESQEEVVSESRGDNPDPTTSYVEDQEDSDSSEEDSSHTLSHSKSESREEQADSESSESLNFSEESPESPEDENSSSQEGLQSHSSSAESQSEESHSEEDDSDSQDSSRSKEDSNSTESKSSSEEDGQLKNIEIESRKLTVDAYHNKPIGDQDDNDCQDGY
For B3, which collagen fibril mineralization (collagen fibrils; nonphosphorylated protein) is on record?
Its collagen fibril mineralization is “no organized mineralization of collagen fibrils was observed”.

And the collagen fibril mineralization (collagen fibrils; phosphorylated protein)?
Its collagen fibril mineralization is “highly organized mineralized collagen fibrils”.

B4: phosphophoryn (protein, UniProt Q9NZW4 463-1301, looked up)
Dentin phosphoprotein: DDPNSSDESNGNDDANSESDNNSSSRGDASYNSDESKDNGNGSDSKGAEDDDSDSTSDTNNSDSNGNGNNGNDDNDKSDSGKGKSDSSDSDSSDSSNSSDSSDSSDSDSSDSNSSSDSDSSDSDSSDSSDSDSSDSSNSSDSSDSSDSSDSSDSSDSSDSKSDSSKSESDSSDSDSKSDSSDSNSSDSSDNSDSSDSSNSSNSSDSSDSSDSSDSSSSSDSSNSSDSSDSSDSSNSSESSDSSDSSDSDSSDSSDSSNSNSSDSDSSNSSDSSDSSNSSDSSDSSDSSNSSDSSDSSDSSNSSDSSDSSDSSDSSDSSNSSDSNDSSNSSDSSDSSNSSDSSNSSDSSDSSDSSDSDSSNSSDSSNSSDSSDSSNSSDSSDSSDSSDGSDSDSSNRSDSSNSSDSSDSSDSSNSSDSSDSSDSNESSNSSDSSDSSNSSDSDSSDSSNSSDSSDSSNSSDSSESSNSSDNSNSSDSSNSSDSSDSSDSSNSSDSSNSSDSSNSSDSSDSNSSDSSDSSNSSDSSDSSDSSDSSDSSDSSNSSDSSDSSDSSDSSNSSDSSNSSDSSNSSDSSDSSDSSDSSDSSDSSDSSDSSNSSDSSDSSDSSDSSDSSDSSDSSDSSESSDSSDSSNSSDSSDSSDSSDSSDSSDSSDSSDSSDSSNSSDSSDSSDSSDSSDSSNSSDSSDSSESSDSSDSSDSSDSSDSSDSSDSSDSSDSSNSSDSSDSSDSSDSSDSSDSSDSSDSSDSSDSSDSSDSSDSSDSSDSSDSSDSNESSDSSDSSDSSDSSNSSDSSDSSDSSDSTSDSNDESDSQSKSGNGNNNGSDSDSDSEGSDSNHSTSDD
modifications: Dentin phosphoprotein
notes: major non-collagenous protein in dentin, Ser-Ser-Asp repeat motifs
Which results are given for B4?
collagen fibril mineralization (collagen fibrils; nonphosphorylated protein): no organized mineralization of collagen fibrils was observed; collagen fibril mineralization (collagen fibrils; phosphorylated protein): highly organized mineralized collagen fibrils
